By stoichiometry N is commonly meant a count of units in the complex or per binding partner.

For two substances, stoichiometry N and fold MFI over cells expressing either fusion alone results are on record in doi:10.1101/2023.02.13.526773.

Assay [1] has as its target mEpoR-TM2 (isotope-labelled recombinant mEpoR TM domain fragment) (mouse). Put plainly: SDS-PAGE.
Assay [2] addresses FLAG-tagged GFP11-CHAMP-1 fusion (N-terminal GFP11). Put plainly: split reporter.

As to “mEpoR-TM2 (isotope-labelled recombinant mEpoR TM domain fragment) (domain or fragment)”, the stoichiometry N in assay [1] stood at 2.
Consider “mEpoR-GFP1-10 fusion protein (domain or fragment)”, for which, in assay [2], the fold MFI over cells expressing either fusion alone is over 4 fold.
